Test results: article PMC2862297 (Journal of molecular biology, 2010)

Target: the molecule itself
Assay: cryo-EM structure

B1: LTag108-627 deletion mutant of SV40 large T antigen (domain or fragment)
chain: EMPSSDDEATADSQHSTPPKKKRKVEDPKDFPSELLSFLSHAVFSNRTLACFAIYTTKEKAALLYKKIMEKYSVTFISRHNSYNHNILFFLTPHRHRVSAINNYAQKLCTFSFLICKGVNKEYLMYSALTRDPFSVIEESLPGGLKEHDFNPEEAEETKQVSWKLVTEYAMETKCDDVLLLLGMYLEFQYSFEMCLKCIKKEQPSHYKYHEKHYANAAIFADSKNQKTICQQAVDTVLAKKRVDSLQLTREQMLTNRFNDLLDRMDIMFGSTGSADIEEWMAGVAWLHCLLPKMDSVVYDFLKCMVYNIPKKRYWLFKGPIDSGKTTLAAALLELCGGKALNVNLPLDRLNFELGVAIDQFLVVFEDVKGTGGESRDLPSGQGINNLDNLRDYLDGSVKVNLEKKHLNKRTQIFPPGIVTMNEYSVPKTLQARFVKQIDFRPKDYLKHCLERSEFLLEKRIIQSGIALLLMLIWYRPVAEFAQSIQSRIVEWKERLDKEFSLSVYQKMKFNVAMGIGVLD
- stoichiometry N: 12
